Earlier results, collected in paper PMC4276913.

Target: Ubc13 (Homo sapiens) (UniProt P61088)
Chain of UniProt P61088 (P61088 whole entry): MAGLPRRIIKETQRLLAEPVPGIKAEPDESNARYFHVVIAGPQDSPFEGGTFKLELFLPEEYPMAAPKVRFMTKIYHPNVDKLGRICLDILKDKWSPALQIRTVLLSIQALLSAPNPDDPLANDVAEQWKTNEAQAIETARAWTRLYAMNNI

Mms2 (from UniProt Q15819)
Kd: 49 nM
